Assay [1] concerns the target T1, FcγRIIa H (human, UniProt P12318 34-217).
T1 construct: extracellular domain; also called FcγRIIa type H; 2aH; not shown: His tag at the C terminus
T1 sequence (looked up): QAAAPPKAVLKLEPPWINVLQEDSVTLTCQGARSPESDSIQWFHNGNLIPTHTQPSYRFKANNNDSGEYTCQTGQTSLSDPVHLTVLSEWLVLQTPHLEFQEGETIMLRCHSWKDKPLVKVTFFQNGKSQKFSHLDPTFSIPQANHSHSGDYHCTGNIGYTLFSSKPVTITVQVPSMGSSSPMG
Nature of the assay: SPR (Biacore), antibody captured, FcγR as analyte; binding relative to GpH7-A5/GpH7-B3/GpL16-k0 = 100. As for the experimental part: (§1) The heterodimerized antibodies He Abs in which one of the H chains was introduced with an alteration were assayed for their binding activities to each activating FcγR and inhibitory FcγR according to the method described in Example 4. […] The activating FcγRs in FIGS. 26, 27, 28, and 29 are FcγRIa, FcγRIIa (R), FcγRIIa (H), and FcγRIIIa, respectively.
(§2) Analysis of interaction between objective antibody and the FcγR was carried out using Biacore T100 (GE Healthcare). HBS-EP+ (GE Healthcare) was used as the running buffer, and the measurement temperature was set to 25° C. Chips produced by immobilizing the antigen peptide by the amine coupling method to a Series S Sencor Chip CM5 (GE Healthcare), or alternatively, chips produced by allowing preliminarily biotinylated antigen peptides to interact with and immobilize onto a Series S Sensor Chip SA (certified) (GE Healthcare) were used. Antibodies of interest were captured onto an antigen peptide-immobilized chip, and allowed to interact to each FcγR diluted with running buffer. To regenerate and repeatedly use the chip, the antibodies captured on the chip were washed off by reacting 10 mM glycine-HCl, pH 1.5.

Assay [2] has as its target T2, FcγRIIb (human, UniProt P31994 43-217).
T2 construct: extracellular domain; also called 2b; not shown: His tag at the C terminus
T2 sequence (looked up): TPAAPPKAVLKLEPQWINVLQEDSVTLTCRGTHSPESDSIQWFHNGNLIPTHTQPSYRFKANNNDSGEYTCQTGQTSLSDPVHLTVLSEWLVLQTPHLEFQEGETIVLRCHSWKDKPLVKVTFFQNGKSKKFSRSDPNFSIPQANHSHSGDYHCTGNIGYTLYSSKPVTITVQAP
The assay is described as above. As for the experimental part:
as §1, §2

Assay [3] has as its target T3, human FcγRIIb extracellular domain with C-terminal His tag (human, UniProt P31994 43-217).
T3 construct: extracellular domain; also called FcgRIIb; 2b; not shown: His tag attached to the C terminus
T3 sequence (looked up): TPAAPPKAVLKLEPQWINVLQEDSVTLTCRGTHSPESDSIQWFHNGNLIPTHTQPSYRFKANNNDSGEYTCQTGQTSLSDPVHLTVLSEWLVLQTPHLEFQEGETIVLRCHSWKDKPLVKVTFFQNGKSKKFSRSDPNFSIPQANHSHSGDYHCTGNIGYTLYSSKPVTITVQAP
As to the kind of experiment: SPR (Biacore T100), antibody captured on antigen peptide chip, FcγRIIb as analyte; relative binding. As to the method:
as §2
Background: SPR reads the build-up and loss of mass on a sensor chip optically.

This passage reports He/Con_2aH, He/Con_2b and Ho/Con_2b results from patent publication US20150344570A1 (published 2015).

B1: GpH7-A5/GpH7-B3 variant Y300_06M/GpL16-k0 (antibody, human IgG1, kappa)
heavy 1: not shown
heavy 2: not shown
light: DIVMTQSPLSLPVTPGEPASISCQASESLVHSNRNTYLHWYLQKPGQSPQLLIYKVSNRFSGVPDRFSGSGSGTDFTLKISRVEAEDVGVYYCSQNTHVPPTFGQGTKVEIERTVAAPSVFIFPPSDEQLKSGTASVVCLLNNFYPREAKVQWKVDNALQSGNSQESVTEQDSKDSTYSLSSTLTLSKADYEKHKVYACEVTHQGLSSPVTKSFNRGEC
notes: Heterodimerized IgG1; mutation in the GpH7-B3 chain only; also called He Ab
For the molecule B1, the He/Con_2aH in assay [1] was 105 % of control. The He/Con_2b in assay [2] was 84.3 % of control.

B2: GpH7-B3 variant L328_03V/GpL16-k0 (Ho Ab) (antibody, human IgG1, kappa)
heavy: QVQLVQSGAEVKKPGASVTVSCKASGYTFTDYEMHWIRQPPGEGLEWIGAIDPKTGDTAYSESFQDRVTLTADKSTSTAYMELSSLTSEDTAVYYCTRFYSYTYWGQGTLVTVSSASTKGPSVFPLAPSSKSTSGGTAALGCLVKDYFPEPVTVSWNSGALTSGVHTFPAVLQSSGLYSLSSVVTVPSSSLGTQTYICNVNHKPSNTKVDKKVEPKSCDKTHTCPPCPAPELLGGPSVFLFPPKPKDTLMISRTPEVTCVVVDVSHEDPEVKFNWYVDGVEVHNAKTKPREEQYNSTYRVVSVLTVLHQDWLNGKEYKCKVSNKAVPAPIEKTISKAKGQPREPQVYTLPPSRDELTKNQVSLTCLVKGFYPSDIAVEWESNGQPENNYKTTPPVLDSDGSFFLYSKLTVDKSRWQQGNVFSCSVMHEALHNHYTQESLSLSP
light: DIVMTQSPLSLPVTPGEPASISCQASESLVHSNRNTYLHWYLQKPGQSPQLLIYKVSNRFSGVPDRFSGSGSGTDFTLKISRVEAEDVGVYYCSQNTHVPPTFGQGTKVEIERTVAAPSVFIFPPSDEQLKSGTASVVCLLNNFYPREAKVQWKVDNALQSGNSQESVTEQDSKDSTYSLSSTLTLSKADYEKHKVYACEVTHQGLSSPVTKSFNRGEC
notes: Anti-glypican-3 IgG1; mutation in both H chains; also called L328V homodimerized antibody
B2: the Ho/Con_2b in assay [3] is 135 % of control GpH7-B3/GpL16-k0 (=100).

B3: GpH7-B3 variant L328_06M/GpL16-k0 (Ho Ab) (antibody, human IgG1, kappa)
heavy: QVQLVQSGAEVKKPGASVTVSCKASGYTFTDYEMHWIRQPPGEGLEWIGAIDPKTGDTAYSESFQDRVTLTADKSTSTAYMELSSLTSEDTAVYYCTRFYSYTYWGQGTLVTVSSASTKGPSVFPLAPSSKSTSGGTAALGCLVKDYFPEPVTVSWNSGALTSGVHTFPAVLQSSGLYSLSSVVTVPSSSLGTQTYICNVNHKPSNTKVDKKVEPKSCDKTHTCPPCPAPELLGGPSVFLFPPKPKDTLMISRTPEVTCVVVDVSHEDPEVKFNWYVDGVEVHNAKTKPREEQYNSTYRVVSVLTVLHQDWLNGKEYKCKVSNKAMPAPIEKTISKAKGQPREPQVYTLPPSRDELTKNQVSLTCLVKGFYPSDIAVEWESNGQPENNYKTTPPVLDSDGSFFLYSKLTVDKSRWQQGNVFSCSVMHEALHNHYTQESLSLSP
light: DIVMTQSPLSLPVTPGEPASISCQASESLVHSNRNTYLHWYLQKPGQSPQLLIYKVSNRFSGVPDRFSGSGSGTDFTLKISRVEAEDVGVYYCSQNTHVPPTFGQGTKVEIERTVAAPSVFIFPPSDEQLKSGTASVVCLLNNFYPREAKVQWKVDNALQSGNSQESVTEQDSKDSTYSLSSTLTLSKADYEKHKVYACEVTHQGLSSPVTKSFNRGEC
notes: Anti-glypican-3 IgG1; mutation in both H chains; also called L328M homodimerized antibody
As to B3, the Ho/Con_2b in assay [3] was 171 % of control GpH7-B3/GpL16-k0 (=100).

B4: GpH7-B3 variant K334_15Y/GpL16-k0 (Ho Ab) (antibody, human IgG1, kappa)
heavy: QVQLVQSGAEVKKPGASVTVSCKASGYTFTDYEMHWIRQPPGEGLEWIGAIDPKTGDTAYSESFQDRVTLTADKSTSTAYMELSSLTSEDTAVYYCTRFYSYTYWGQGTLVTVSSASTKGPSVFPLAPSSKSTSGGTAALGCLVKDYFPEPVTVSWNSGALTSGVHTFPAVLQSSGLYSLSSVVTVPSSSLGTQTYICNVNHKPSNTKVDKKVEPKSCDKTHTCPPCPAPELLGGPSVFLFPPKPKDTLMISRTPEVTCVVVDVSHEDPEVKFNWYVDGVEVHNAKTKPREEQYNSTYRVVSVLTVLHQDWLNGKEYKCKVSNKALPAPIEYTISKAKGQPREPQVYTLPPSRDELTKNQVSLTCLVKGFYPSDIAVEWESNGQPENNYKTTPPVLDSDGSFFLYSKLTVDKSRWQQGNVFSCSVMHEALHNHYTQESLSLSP
light: DIVMTQSPLSLPVTPGEPASISCQASESLVHSNRNTYLHWYLQKPGQSPQLLIYKVSNRFSGVPDRFSGSGSGTDFTLKISRVEAEDVGVYYCSQNTHVPPTFGQGTKVEIERTVAAPSVFIFPPSDEQLKSGTASVVCLLNNFYPREAKVQWKVDNALQSGNSQESVTEQDSKDSTYSLSSTLTLSKADYEKHKVYACEVTHQGLSSPVTKSFNRGEC
notes: Anti-glypican-3 IgG1; mutation in both H chains; also called K334Y homodimerized antibody
As for B4, in assay [3], the Ho/Con_2b was 126 % of control GpH7-B3/GpL16-k0 (=100).

B5: GpH7-B3 variant K334_16H/GpL16-k0 (Ho Ab) (antibody, human IgG1, kappa)
heavy: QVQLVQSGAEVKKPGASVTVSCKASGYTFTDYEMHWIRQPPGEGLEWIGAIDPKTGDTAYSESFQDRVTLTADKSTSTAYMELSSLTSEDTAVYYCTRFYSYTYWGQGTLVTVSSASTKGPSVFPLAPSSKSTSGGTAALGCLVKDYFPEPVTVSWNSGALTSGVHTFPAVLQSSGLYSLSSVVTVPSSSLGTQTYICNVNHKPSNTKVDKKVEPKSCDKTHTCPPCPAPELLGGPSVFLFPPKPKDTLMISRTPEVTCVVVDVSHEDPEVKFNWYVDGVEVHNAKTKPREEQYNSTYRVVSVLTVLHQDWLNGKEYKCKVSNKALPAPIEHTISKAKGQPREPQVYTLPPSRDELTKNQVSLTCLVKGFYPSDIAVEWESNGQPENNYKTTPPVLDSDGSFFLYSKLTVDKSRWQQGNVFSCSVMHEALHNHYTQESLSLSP
light: DIVMTQSPLSLPVTPGEPASISCQASESLVHSNRNTYLHWYLQKPGQSPQLLIYKVSNRFSGVPDRFSGSGSGTDFTLKISRVEAEDVGVYYCSQNTHVPPTFGQGTKVEIERTVAAPSVFIFPPSDEQLKSGTASVVCLLNNFYPREAKVQWKVDNALQSGNSQESVTEQDSKDSTYSLSSTLTLSKADYEKHKVYACEVTHQGLSSPVTKSFNRGEC
notes: Anti-glypican-3 IgG1; mutation in both H chains; also called K334H homodimerized antibody
With B5, the Ho/Con_2b in assay [3] was 124 % of control GpH7-B3/GpL16-k0 (=100).

B6: GpH7-B3 variant K334_18N/GpL16-k0 (Ho Ab) (antibody, human IgG1, kappa)
heavy: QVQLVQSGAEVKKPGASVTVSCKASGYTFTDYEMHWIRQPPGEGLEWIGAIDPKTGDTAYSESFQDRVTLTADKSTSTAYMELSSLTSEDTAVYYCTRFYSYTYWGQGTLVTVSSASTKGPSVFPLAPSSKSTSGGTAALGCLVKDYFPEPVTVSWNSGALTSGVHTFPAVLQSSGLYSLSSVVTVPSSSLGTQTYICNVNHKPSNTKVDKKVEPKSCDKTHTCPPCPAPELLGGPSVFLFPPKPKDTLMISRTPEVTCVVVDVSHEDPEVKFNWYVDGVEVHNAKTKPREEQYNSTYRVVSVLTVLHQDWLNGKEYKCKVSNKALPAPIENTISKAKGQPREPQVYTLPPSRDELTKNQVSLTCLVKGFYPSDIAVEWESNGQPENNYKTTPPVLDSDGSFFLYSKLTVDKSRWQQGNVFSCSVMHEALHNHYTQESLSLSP
light: DIVMTQSPLSLPVTPGEPASISCQASESLVHSNRNTYLHWYLQKPGQSPQLLIYKVSNRFSGVPDRFSGSGSGTDFTLKISRVEAEDVGVYYCSQNTHVPPTFGQGTKVEIERTVAAPSVFIFPPSDEQLKSGTASVVCLLNNFYPREAKVQWKVDNALQSGNSQESVTEQDSKDSTYSLSSTLTLSKADYEKHKVYACEVTHQGLSSPVTKSFNRGEC
notes: Anti-glypican-3 IgG1; mutation in both H chains; also called K334N homodimerized antibody
For B6, in assay [3], the Ho/Con_2b was 128 % of control GpH7-B3/GpL16-k0 (=100).

B7: GpH7-B3 variant P271_08L/GpL16-k0 (Ho Ab) (antibody, human IgG1, kappa)
heavy: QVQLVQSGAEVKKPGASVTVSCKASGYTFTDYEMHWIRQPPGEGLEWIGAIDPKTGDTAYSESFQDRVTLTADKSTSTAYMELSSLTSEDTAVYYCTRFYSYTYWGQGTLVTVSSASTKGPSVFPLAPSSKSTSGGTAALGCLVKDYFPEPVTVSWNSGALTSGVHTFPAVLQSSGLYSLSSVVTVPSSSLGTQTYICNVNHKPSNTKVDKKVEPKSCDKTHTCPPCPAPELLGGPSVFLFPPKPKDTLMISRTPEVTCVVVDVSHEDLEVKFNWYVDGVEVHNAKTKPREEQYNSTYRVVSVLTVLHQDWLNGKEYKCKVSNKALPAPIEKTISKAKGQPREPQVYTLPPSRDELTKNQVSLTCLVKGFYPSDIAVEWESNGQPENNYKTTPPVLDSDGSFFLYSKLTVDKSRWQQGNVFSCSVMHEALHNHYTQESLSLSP
light: DIVMTQSPLSLPVTPGEPASISCQASESLVHSNRNTYLHWYLQKPGQSPQLLIYKVSNRFSGVPDRFSGSGSGTDFTLKISRVEAEDVGVYYCSQNTHVPPTFGQGTKVEIERTVAAPSVFIFPPSDEQLKSGTASVVCLLNNFYPREAKVQWKVDNALQSGNSQESVTEQDSKDSTYSLSSTLTLSKADYEKHKVYACEVTHQGLSSPVTKSFNRGEC
notes: Anti-glypican-3 IgG1; mutation in both H chains; also called P271L homodimerized antibody
For B7, the Ho/Con_2b in assay [3] was 113 % of control GpH7-B3/GpL16-k0 (=100).

B8: GpH7-B3 variant L328_14T/GpL16-k0 (Ho Ab) (antibody, human IgG1, kappa)
heavy: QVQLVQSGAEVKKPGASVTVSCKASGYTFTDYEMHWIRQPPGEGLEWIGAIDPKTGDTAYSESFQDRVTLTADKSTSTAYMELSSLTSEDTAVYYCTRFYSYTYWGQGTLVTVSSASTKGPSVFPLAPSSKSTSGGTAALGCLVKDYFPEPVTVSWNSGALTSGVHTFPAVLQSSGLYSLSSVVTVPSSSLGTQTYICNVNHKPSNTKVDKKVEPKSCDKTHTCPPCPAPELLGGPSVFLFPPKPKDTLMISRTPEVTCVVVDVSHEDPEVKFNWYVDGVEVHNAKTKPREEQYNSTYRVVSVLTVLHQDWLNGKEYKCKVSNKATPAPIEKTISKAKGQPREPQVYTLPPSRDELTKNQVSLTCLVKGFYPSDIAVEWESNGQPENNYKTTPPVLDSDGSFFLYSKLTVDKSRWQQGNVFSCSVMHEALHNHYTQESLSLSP
light: DIVMTQSPLSLPVTPGEPASISCQASESLVHSNRNTYLHWYLQKPGQSPQLLIYKVSNRFSGVPDRFSGSGSGTDFTLKISRVEAEDVGVYYCSQNTHVPPTFGQGTKVEIERTVAAPSVFIFPPSDEQLKSGTASVVCLLNNFYPREAKVQWKVDNALQSGNSQESVTEQDSKDSTYSLSSTLTLSKADYEKHKVYACEVTHQGLSSPVTKSFNRGEC
notes: Anti-glypican-3 IgG1; mutation in both H chains; also called L328T homodimerized antibody
On to B8, for which, in assay [3], the Ho/Con_2b was 146 % of control GpH7-B3/GpL16-k0 (=100).

B9: GpH7-B3 variant K334_19Q/GpL16-k0 (Ho Ab) (antibody, human IgG1, kappa)
heavy: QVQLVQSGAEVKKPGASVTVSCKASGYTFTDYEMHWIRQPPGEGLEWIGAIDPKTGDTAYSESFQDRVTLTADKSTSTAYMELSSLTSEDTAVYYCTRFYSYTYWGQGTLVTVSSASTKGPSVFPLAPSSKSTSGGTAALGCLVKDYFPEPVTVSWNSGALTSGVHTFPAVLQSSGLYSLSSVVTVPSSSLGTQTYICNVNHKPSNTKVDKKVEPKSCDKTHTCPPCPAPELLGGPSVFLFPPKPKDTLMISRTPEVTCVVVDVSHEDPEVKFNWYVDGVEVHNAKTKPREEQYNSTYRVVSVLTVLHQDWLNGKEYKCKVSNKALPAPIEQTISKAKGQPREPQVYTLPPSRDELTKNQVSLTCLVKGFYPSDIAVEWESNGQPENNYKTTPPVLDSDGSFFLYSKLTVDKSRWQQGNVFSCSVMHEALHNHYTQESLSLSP
light: DIVMTQSPLSLPVTPGEPASISCQASESLVHSNRNTYLHWYLQKPGQSPQLLIYKVSNRFSGVPDRFSGSGSGTDFTLKISRVEAEDVGVYYCSQNTHVPPTFGQGTKVEIERTVAAPSVFIFPPSDEQLKSGTASVVCLLNNFYPREAKVQWKVDNALQSGNSQESVTEQDSKDSTYSLSSTLTLSKADYEKHKVYACEVTHQGLSSPVTKSFNRGEC
notes: Anti-glypican-3 IgG1; mutation in both H chains; also called K334Q homodimerized antibody
Consider B9, for which, in assay [3], the Ho/Con_2b was 117 % of control GpH7-B3/GpL16-k0 (=100).
